{
  "source": "paper PMC3731059",
  "assay_in_all_cases": "FXa generation assay",
  "key": {"[1]": {"target": "FVIIIa Ala1866Cys/Ser2119Cys (thrombin-activated B domainless factor VIII variant) (UniProt P00451)"}, "[2]": {"target": "FVIIIa Arg2116Ala (thrombin-activated B domainless factor VIII variant) (UniProt P00451)"}, "[3]": {"target": "FVIIIa Arg2116Val (thrombin-activated B domainless factor VIII variant) (UniProt P00451)"}, "[4]": {"target": "FVIIIa Gly1750Cys/Arg2116Cys (thrombin-activated B domainless factor VIII variant) (UniProt P00451)"}, "[5]": {"target": "FVIIIa Ser2029Cys/Pro2292Cys (thrombin-activated B domainless factor VIII variant) (UniProt P00451)"}, "[6]": {"target": "WT FVIIIa (thrombin-activated B domainless factor VIII) (UniProt P00451)"}},
  "data": [
    {"substance": "factor IXaβ (enzyme)", "values": [
      {"measurement": "Kd", "setting": "[1]", "result": 0.4, "unit": "nM"},
      {"measurement": "Kd", "setting": "[2]", "result": 0.45, "unit": "nM"},
      {"measurement": "Kd", "setting": "[3]", "result": 0.4, "unit": "nM"},
      {"measurement": "Kd", "setting": "[4]", "result": 0.44, "unit": "nM"},
      {"measurement": "Kd", "setting": "[5]", "result": 0.33, "unit": "nM"},
      {"measurement": "Kd", "setting": "[6]", "result": 0.43, "unit": "nM"}
    ]}
  ]
}
